In article PMC9352680, “A comprehensive thermodynamic model for RNA binding by the Saccharomyces cerevisiae Pumilio protein PUF4”:
Positions count from the first letter of the chain named. Names and notes keep the numbering of the source.

T1: PUF4 RNA-binding domain (Saccharomyces cerevisiae, UniProt P25339 537-888)
T1 sequence: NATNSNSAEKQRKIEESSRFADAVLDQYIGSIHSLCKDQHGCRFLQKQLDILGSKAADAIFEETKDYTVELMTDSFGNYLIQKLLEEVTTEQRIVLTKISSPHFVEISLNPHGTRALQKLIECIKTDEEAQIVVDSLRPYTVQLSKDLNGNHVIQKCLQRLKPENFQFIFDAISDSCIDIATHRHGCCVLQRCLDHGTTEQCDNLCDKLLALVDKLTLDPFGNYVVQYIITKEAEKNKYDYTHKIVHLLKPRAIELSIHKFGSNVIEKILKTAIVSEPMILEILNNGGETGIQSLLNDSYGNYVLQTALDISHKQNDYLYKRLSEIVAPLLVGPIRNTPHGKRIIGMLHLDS

B1: Ic_S2_P4E.1_K4.1_C4.1_H4.1_A4.1_[T5C]_[A6C]_F4.1_[A9G]_T4.1 (ssRNA)
RNA: UUUGAUUAAUAUGAUAUCGUUCUUUCUUGUACCUUGUUCUUUCUCGAUAUCAUAUUAAUCUUU
B2: Ic_S2_P4E.1_K4.1_C4.1_H4.1_A4.1_[T5C]_[A6T]_[T7C]_F4.1_[T8G]_[A9C]_T4.1 (ssRNA)
RNA: B1 RNA with C33U, U34C, U35G, G36C
B3: Ic_S2_P4E.1_K4.1_C4.1_H4.1_A4.1_[T5C]_[A6T]_[T7C]_F4.1_[T8C]_T4.1 (ssRNA)
RNA: B1 RNA with C33U, U34C, U35C, G36A
B4: Ic_S2_P4E.1_K4.1_C4.1_H4.1_A4.1_[T5C]_[A6C]_F4.1_[A9C]_T4.1 (ssRNA)
RNA: B1 RNA with G36C
B5: Ic_S2_P4E.1_K4.1_C4.1_H4.1_A4.1_[T5C]_[T7C]_F4.1_[A9C]_T4.1 (ssRNA)
RNA: B1 RNA with C33A, U34C, G36C
B6: Ic_S2_P4E.1_K4.1_C4.1_H4.1_A4.1_[T5C]_[A6T]_[T7G]_F4.1_[T8C]_[A9T]_T4.1 (ssRNA)
RNA: B1 RNA with C33U, U34G, U35C, G36U
B7: Ic_S2_P4E.1_K4.1_C4.1_H4.1_A4.1_[T5C]_[A6T]_F4.1_[T8A]_T4.1 (ssRNA)
RNA: B1 RNA with C33U, U35A, G36A
B8: Ic_S2_P4E.1_K4.1_C4.1_H4.1_A4.1_[T5C]_[A6T]_F4.1_[T8A]_[A9G]_T4.1 (ssRNA)
RNA: B1 RNA with C33U, U35A
B9: Ic_S2_P4E.1_K4.1_C4.1_H4.1_A4.1_[T5C]_[A6T]_[T7A]_F4.1_[A9C]_T4.1 (ssRNA)
RNA: B1 RNA with C33U, U34A, G36C
B10: Ic_S2_P4E.1_K4.1_C4.1_H4.1_A4.1_[T5C]_[T7C]_F4.1_[A9G]_T4.1 (ssRNA)
RNA: B1 RNA with C33A, U34C
B11: Ic_S2_P4E.1_K4.1_C4.1_H4.1_A4.1_[T5C]_[A6T]_F4.1_[A9T]_T4.1 (ssRNA)
RNA: B1 RNA with C33U, G36U
B12: Ic_S2_P4E.1_K4.1_C4.1_H4.1_A4.1_[T5C]_[T7A]_F4.1_[T8C]_[A9G]_T4.1 (ssRNA)
RNA: B1 RNA with C33A, U34A, U35C
B13: Ic_S2_P4E.1_K4.1_C4.1_H4.1_A4.1_[T5C]_[A6T]_[T7C]_F4.1_[T8C]_[A9T]_T4.1 (ssRNA)
RNA: B1 RNA with C33U, U34C, U35C, G36U
B14: Ic_S2_P4E.1_K4.1_C4.1_H4.1_A4.1_[T5C]_[A6T]_[T7C]_F4.1_[T8C]_[A9C]_T4.1 (ssRNA)
RNA: B1 RNA with C33U, U34C, U35C, G36C
B15: Ic_S2_P4E.1_K4.1_C4.1_H4.1_A4.1_[T5C]_[A6T]_[T7G]_F4.1_[T8G]_[A9T]_T4.1 (ssRNA)
RNA: B1 RNA with C33U, U34G, U35G, G36U
B16: Ic_S2_P4E.1_K4.1_C4.1_H4.1_A4.1_[T5C]_[A6T]_F4.1_[T8C]_[A9C]_T4.1 (ssRNA)
RNA: B1 RNA with C33U, U35C, G36C
B17: Ic_S2_P4E.1_K4.1_C4.1_H4.1_A4.1_[T5C]_[T7C]_F4.1_[T8A]_T4.1 (ssRNA)
RNA: B1 RNA with C33A, U34C, U35A, G36A
B18: Ic_S2_P4E.1_K4.1_C4.1_H4.1_A4.1_[T5C]_[A6T]_F4.1_[A9G]_T4.1 (ssRNA)
RNA: B1 RNA with C33U
B19: Ic_S2_P4E.1_K4.1_C4.1_H4.1_A4.1_[T5C]_[A6T]_F4.1_[T8G]_[A9T]_T4.1 (ssRNA)
RNA: B1 RNA with C33U, U35G, G36U
B20: Ic_S2_P4E.1_K4.1_C4.1_H4.1_A4.1_[T5C]_[A6T]_F4.1_[T8C]_[A9G]_T4.1 (ssRNA)
RNA: B1 RNA with C33U, U35C
B21: Ic_S2_P4E.1_K4.1_C4.1_H4.1_A4.1_[T5C]_[T7C]_F4.1_[T8C]_T4.1 (ssRNA)
RNA: B1 RNA with C33A, U34C, U35C, G36A
B22: Ic_S2_P4E.1_K4.1_C4.1_H4.1_A4.1_[T5C]_[A6T]_F4.1_[T8G]_[A9G]_T4.1 (ssRNA)
RNA: B1 RNA with C33U, U35G
B23: Ic_S2_P4E.1_K4.1_C4.1_H4.1_A4.1_[T5C]_[A6T]_[T7G]_F4.1_T4.1 (ssRNA)
RNA: B1 RNA with C33U, U34G, G36A
B24: Ic_S2_P4E.1_K4.1_C4.1_H4.1_A4.1_[T5C]_[A6T]_[T7G]_F4.1_[A9T]_T4.1 (ssRNA)
RNA: B1 RNA with C33U, U34G, G36U
B25: Ic_S2_P4E.1_K4.1_C4.1_H4.1_A4.1_[T5C]_[A6T]_F4.1_[T8G]_[A9C]_T4.1 (ssRNA)
RNA: B1 RNA with C33U, U35G, G36C
B26: Ic_S2_P4E.1_K4.1_C4.1_H4.1_A4.1_[T5C]_[A6T]_F4.1_[T8A]_[A9C]_T4.1 (ssRNA)
RNA: B1 RNA with C33U, U35A, G36C
B27: Ic_S2_P4E.1_K4.1_C4.1_H4.1_A4.1_[T5C]_[A6T]_F4.1_[T8C]_[A9T]_T4.1 (ssRNA)
RNA: B1 RNA with C33U, U35C, G36U
B28: Ic_S2_P4E.1_K4.1_C4.1_H4.1_A4.1_[T5C]_[A6T]_F4.1_[T8C]_T4.1 (ssRNA)
RNA: B1 RNA with C33U, U35C, G36A
B29: Ic_S2_P4E.1_K4.1_C4.1_H4.1_A4.1_[T5C]_[A6T]_F4.1_[A9C]_T4.1 (ssRNA)
RNA: B1 RNA with C33U, G36C
B30: Ic_S2_P4E.1_K4.1_C4.1_H4.1_A4.1_[T5C]_[A6T]_[T7C]_F4.1_[T8A]_[A9T]_T4.1 (ssRNA)
RNA: B1 RNA with C33U, U34C, U35A, G36U
B31: Ic_S2_P4E.1_K4.1_C4.1_H4.1_A4.1_[T5C]_[A6T]_[T7A]_F4.1_[T8G]_[A9T]_T4.1 (ssRNA)
RNA: B1 RNA with C33U, U34A, U35G, G36U
B32: Ic_S2_P4E.1_K4.1_C4.1_H4.1_A4.1_[T5C]_[T7G]_F4.1_[T8C]_T4.1 (ssRNA)
RNA: B1 RNA with C33A, U34G, U35C, G36A
B33: Ic_S2_P4E.1_K4.1_C4.1_H4.1_A4.1_[T5C]_[A6C]_F4.1_[A9T]_T4.1 (ssRNA)
RNA: B1 RNA with G36U
B34: Ic_S2_P4E.1_K4.1_C4.1_H4.1_A4.1_[T5C]_[A6T]_F4.1_[T8A]_[A9T]_T4.1 (ssRNA)
RNA: B1 RNA with C33U, U35A, G36U
B35: Ic_S2_P4E.1_K4.1_C4.1_H4.1_A4.1_[T5C]_[T7G]_F4.1_[A9T]_T4.1 (ssRNA)
RNA: B1 RNA with C33A, U34G, G36U
B36: Ic_S2_P4E.1_K4.1_C4.1_H4.1_A4.1_[T5C]_[A6T]_[T7A]_F4.1_[T8A]_[A9C]_T4.1 (ssRNA)
RNA: B1 RNA with C33U, U34A, U35A, G36C
B37: Ic_S2_P4E.1_K4.1_C4.1_H4.1_A4.1_[T5C]_[A6T]_[T7G]_F4.1_[T8C]_[A9C]_T4.1 (ssRNA)
RNA: B1 RNA with C33U, U34G, U35C, G36C
B38: Ic_S2_P4E.1_K4.1_C4.1_H4.1_A4.1_[T5C]_[T7C]_F4.1_[A9T]_T4.1 (ssRNA)
RNA: B1 RNA with C33A, U34C, G36U
B39: Ic_S2_P4E.1_K4.1_C4.1_H4.1_A4.1_[T5C]_[A6T]_[T7C]_F4.1_T4.1 (ssRNA)
RNA: B1 RNA with C33U, U34C, G36A
B40: Ic_S2_P4E.1_K4.1_C4.1_H4.1_A4.1_[T5C]_[A6T]_[T7A]_F4.1_[T8C]_T4.1 (ssRNA)
RNA: B1 RNA with C33U, U34A, U35C, G36A
B41: Ic_S2_P4E.1_K4.1_C4.1_H4.1_A4.1_[T5C]_[A6T]_[T7G]_F4.1_[T8C]_T4.1 (ssRNA)
RNA: B1 RNA with C33U, U34G, U35C, G36A

Target: T1, PUF4 RNA-binding domain
Experiment: Mg; RNA-MaP; 20 mM Na-HEPES pH 7.4, 30 mM KOAc, 0.75 mM MgCl2, 0.1% Tween-20, 5% glycerol, 0.1 mg/mL BSA, 2 mM DTT; 25 C; 0.0125-409.6 nM protein
Settings: tags: N-His6-TEV cleaved; C-SNAP kept, Cy3B-labelled; label: tethered on chip by stalled RNA polymerase

Binder | Kd [nM]
UCUCUUUGUUUUUAUCUCUU (ssRNA) [Ib_S1_P3E.1_K3.1_C3.1_H3.1_[A4T]_A3.1_[A6T]_F3.1_T3.1] | 1670
UCUCUUUGUAGCUAUCUCUU (ssRNA) [Ib_S1_P3E.1_K3.1_C3.1_H3.1_A3.1_[T5G]_[A6C]_F3.1_T3.1] | 819
B1 | 14
B2 | 879
B3 | 213
B4 | 21.5
B5 | 5.21
B6 | 157
B7 | 22.9
B8 | 141
B9 | 9.16
B10 | 2.73
B11 | 9.78
B12 | 55.1
B13 | 103
B14 | 242
B15 | 966
B16 | 102
B17 | 13.8
B18 | 13.1
B19 | 72.9
B20 | 110
B21 | 14

Binder | Kd [nM]
B22 | 430
B23 | 2.61
B24 | 28.6
B25 | 365
B26 | 85.2
B27 | 24.4
B28 | 53.5
B29 | 13.3
B30 | 68.6
B31 | 538
B32 | 206
B33 | 6.99
B34 | 13.6
B35 | 9.39
B36 | 519
B37 | 467
B38 | 2.92
B39 | 0.967
B40 | 353
B41 | 753
UCUCUUUGUAGUUAUCUCUU (ssRNA) [Ib_S1_P3E.1_K3.1_C3.1_H3.1_A3.1_[T5G]_[A6T]_F3.1_T3.1] | 1020
UCUCUUUGUUUCUAUCUCUU (ssRNA) [Ib_S1_P3E.1_K3.1_C3.1_H3.1_[A4T]_A3.1_[A6C]_F3.1_T3.1] | > 2300
